Laboratory results from patent publication US5932697A, “Synthetic antifreeze peptide” (Virginia Tech Intellectual Properties, Inc., priority 1991, dated 1999).

Test system: JM109 (DE3)
Assay: Studies of cell viability in strains expressing WF8R fusion proteins
Format: cell-based, E. coli
Details: JM109 (DE3) [pX28] or [pX284], intracellular expression as P10 fusion; applicants' conclusion from cell viability studies
Text: The pX28 and pX284 were transformed into JM109 (DE3). The proteins produced in either the JM109 (DE3) [pX28] or in the JM109 (DE3) [pX284] after induction by IPTG in mid- or late-logarithmic growth phase, have been analyzed by sodium dodecyl sulfate (SDS)--polyacrylamide gel electrophoresis (SDS-PAGE). […] Studies of cell viability in these strains have shown that both strains are adversely affected with respect to growth and stability of the plasmid (these effects were more pronounced in the pX28 harboring strain). […] To avert this problem the applicants decided to protect the fusion protein from intracellular degradation, as well as to protect the cells from the toxicity of WF8R, by adding to the fusion a C-terminal end derived from E. coli β-galactosidase.

B1: WF8R: synthetic 98 amino acid antifreeze peptide with eight eleven-amino-acid repeats, modeled on winter flounder AFP, expressed in E. coli (protein)
chain: MSTASDAAAAAAATAATAAAAAAATAATAAAAAAATAATAAAAAAATAATAAAAAAATAATAAAAAAATAATAAKAAALTAANAAAAAAATAAAAARG
toxicity to the cells (growth and stability of the plasmid adversely affected): toxic to the cells
